Measured values from patent US20060058253.

Legend:
[1] = target: MS2 bacteriophage coat protein (Bacteriophage MS2) (UniProt P03612); conditions: likely CITED; stated Kd for cognate site
[2] = target: hnRNP A1/A2 (Homo sapiens) (UniProt P09651+P22626); conditions: apparent Kd, likely CITED; stated for A1 and A2; excess TS10 abolishes ABS stimulation in HeLa extract
hnRNP A1/A2 (Homo sapiens), sequence (P09651 whole entry, chain 1 of 2): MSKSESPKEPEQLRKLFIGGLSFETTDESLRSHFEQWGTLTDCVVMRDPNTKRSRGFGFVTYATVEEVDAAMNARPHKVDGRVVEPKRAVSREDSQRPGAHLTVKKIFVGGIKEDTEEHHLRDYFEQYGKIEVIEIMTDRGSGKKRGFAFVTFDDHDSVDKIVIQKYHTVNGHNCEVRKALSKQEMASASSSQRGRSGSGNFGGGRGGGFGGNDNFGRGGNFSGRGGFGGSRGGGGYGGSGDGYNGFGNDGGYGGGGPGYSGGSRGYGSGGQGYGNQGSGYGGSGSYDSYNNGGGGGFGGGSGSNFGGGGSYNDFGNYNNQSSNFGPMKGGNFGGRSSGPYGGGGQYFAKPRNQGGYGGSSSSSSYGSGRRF
hnRNP A1/A2 (Homo sapiens), sequence (P22626 whole entry, chain 2 of 2): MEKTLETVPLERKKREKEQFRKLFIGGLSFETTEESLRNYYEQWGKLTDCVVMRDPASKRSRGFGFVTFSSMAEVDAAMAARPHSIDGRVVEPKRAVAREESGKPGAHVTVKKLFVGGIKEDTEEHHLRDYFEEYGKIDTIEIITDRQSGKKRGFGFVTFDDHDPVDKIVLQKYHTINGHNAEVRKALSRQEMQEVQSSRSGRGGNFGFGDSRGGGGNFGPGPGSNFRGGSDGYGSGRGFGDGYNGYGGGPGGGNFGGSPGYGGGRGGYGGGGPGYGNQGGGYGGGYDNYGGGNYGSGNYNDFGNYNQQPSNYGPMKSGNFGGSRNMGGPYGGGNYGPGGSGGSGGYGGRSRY

MS2 bacteriophage coat protein (Bacteriophage MS2), sequence (P03612 2-130): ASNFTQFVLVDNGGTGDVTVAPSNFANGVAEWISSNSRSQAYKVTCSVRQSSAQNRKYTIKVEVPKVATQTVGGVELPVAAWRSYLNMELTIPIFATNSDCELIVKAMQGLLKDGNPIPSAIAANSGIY

Substance	Kd [1] [nM]	Kd [2] [nM]
MS2 stem-loop binding site in C5 pre-mRNA (position -26)	1	
TS10 telomeric DNA oligo (60 nt, nine A1 binding sites)		< 5
